The values that follow come from patent publication US5668265, “Bi-directional oligonucleotides that bind thrombin” (Becton Dickinson and Company).

The target of the data set is alpha-thrombin (Homo sapiens, UniProt P00734;P00734 P00734:315-363,P00734:364-622). Description: SPR; apparent; solution competition vs immobilized consensus aptamer; same buffer, 25 C. On the technique in general: SPR reads the build-up and loss of mass on a sensor chip optically.

Consider GGTTGGTT (ssDNA) [Compound 12 (single segment)], for which the Kd was determined as 1500 nM.

GGTTGGTGTGGTTGG (structured_DNA) [Compound 10 (consensus thrombin aptamer)]: the Kd was 6 nM.
